# Test results from publication doi:10.1101/2023.01.18.524603.
# What was measured:
# Assay in all cases: EMSA
# Settings in all cases: EMSA: 25 mM Tris-HCl pH 7.4, 100 mM NaCl, 5 ng DNA in 10 ul, 20 min, room temperature, AFM: 25 mM HEPES-NaOH pH 7.4, 5 mM MgCl2, 50 mM NaCl, 10% glycerol
# [1] = system: Rec114(325-428)-Mei4(1-90) (Saccharomyces cerevisiae)
# [2] = system: Rec114(388-428) K417A/K424A-Mei4N (Saccharomyces cerevisiae)
# [3] = system: Rec114(388-428) K399A/R400A-Mei4N (Saccharomyces cerevisiae)
# [4] = molecular target: T1, Rec114C-Mei4N (RM-TDB) (Saccharomyces cerevisiae) (UniProt P32841+P29467)
# T1 sequence 1: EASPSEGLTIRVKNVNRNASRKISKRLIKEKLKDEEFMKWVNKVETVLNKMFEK
# T1 sequence 2: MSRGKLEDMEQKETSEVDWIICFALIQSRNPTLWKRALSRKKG
# [5] = system: Rec114(388-428)-Mei4(13-43) (Saccharomyces cerevisiae)
# [6] = system: Rec114(388-428)-Mei4N (Saccharomyces cerevisiae)
# [7] = system: Rec114C-Mei4N-ybbR-LD650 (Saccharomyces cerevisiae)
# [8] = system: Rec114C-Mei4N-ybbR (Saccharomyces cerevisiae)
# [9] = system: Rec114(388-428) K403A/K407A-Mei4N (Saccharomyces cerevisiae)
# [10] = system: Rec114(386-428)-Mei4N (Saccharomyces cerevisiae)
# [11] = system: Rec114(388-428) R395A/K396A-Mei4N (Saccharomyces cerevisiae)
# [12] = system: Rec114C (Saccharomyces cerevisiae)
Substance,K half [1] [nM],K half [2] [nM],K half [3] [nM],K half [4] [nM],K half [5] [nM],K half [6] [nM],K half [7] [nM],K half [8] [nM],K half [9] [nM],K half [10] [nM],K half [11] [nM],K half [12] [nM]
150-bp linear DNA,90,900,2000,90,100,110,90,90,1000,110,1000,–
1000-bp linear DNA,–,–,–,80,–,–,–,–,–,–,–,300
